Source: publication PMC314469, “Protein Interaction Networks by Proteome Peptide Scanning” (PLoS Biology, 2004)

T1: amphyphisin SH3 (AMPH_HUMAN), P49418
T1 chain: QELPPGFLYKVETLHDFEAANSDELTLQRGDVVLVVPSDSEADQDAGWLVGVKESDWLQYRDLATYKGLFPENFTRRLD

T2: Rvs167 SH3 (RV167_YEAST), P39743
T2 chain: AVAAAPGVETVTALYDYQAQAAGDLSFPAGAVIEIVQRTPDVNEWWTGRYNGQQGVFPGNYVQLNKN

T3: Yhr016c SH3 (YSC84_YEAST), P32793
T3 chain: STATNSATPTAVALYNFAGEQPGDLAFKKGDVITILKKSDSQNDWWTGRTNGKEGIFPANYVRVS

T4: Yfr024 SH3 (LSB3_YEAST), P43603
T4 chain: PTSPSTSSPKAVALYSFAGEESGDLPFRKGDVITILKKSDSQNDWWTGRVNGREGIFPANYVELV

T5: Boi2 SH3 (BOI2_YEAST), P39969
T5 chain: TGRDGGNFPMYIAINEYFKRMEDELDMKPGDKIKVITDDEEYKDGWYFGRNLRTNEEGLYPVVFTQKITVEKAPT

T6: Boi1 SH3 (BOI1_YEAST), P38041
T6 chain: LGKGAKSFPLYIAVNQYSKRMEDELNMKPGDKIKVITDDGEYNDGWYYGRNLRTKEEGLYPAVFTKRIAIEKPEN


Key:
Experiment in all cases: SPOT array
[1] = target: T1, amphyphisin SH3 (AMPH_HUMAN), P49418
[2] = target: endophilin SH3 (SH3G2_HUMAN), Q99962
[3] = target: T2, Rvs167 SH3 (RV167_YEAST), P39743
[4] = target: T3, Yhr016c SH3 (YSC84_YEAST), P32793
[5] = target: T4, Yfr024 SH3 (LSB3_YEAST), P43603
[6] = target: T5, Boi2 SH3 (BOI2_YEAST), P39969
[7] = target: T6, Boi1 SH3 (BOI1_YEAST), P38041

Binder	normalised SPOT signal, Boehringer light units (BLU); mean over the file's lines of this peptide [1]	normalised SPOT signal, Boehringer light units (BLU); mean over the file's lines of this peptide [2]	normalised SPOT signal, Boehringer light units (BLU); mean over the file's lines of this peptide [3]	normalised SPOT signal, Boehringer light units (BLU); mean over the file's lines of this peptide [4]	normalised SPOT signal, Boehringer light units (BLU); mean over the file's lines of this peptide [5]	normalised SPOT signal, Boehringer light units (BLU); mean over the file's lines of this peptide [6]	normalised SPOT signal, Boehringer light units (BLU); mean over the file's lines of this peptide [7]
GDPAPSRPLRAHFL [Q9P244 448-461]	9150	5050	–	–	–	–	–
GASSIARPFRRDSQ [Q9Y6N3 202-215]	671	120	–	–	–	–	–
NKIPPKPRKVLQLL [YGL076C 93-106]	–	–	188	172	1730	99.5	63.6
GAPGPRRPFQQKPL [Q9BYB0 718-731]	6.3	2000	–	–	–	–	–
NIQPDLPPRKIMIP [YBR239C 90-103]	–	–	33000	56900	27200	111	1500
FWQSPKRPPSPIKF [Q9H3T7 733-747]	349	12400	–	–	–	–	–
GARSPKRPRLQLPG [Q9BWN1 26-39]	18.6	1210	–	–	–	–	–
GASLFNRPTKLFEP [O75077 489-502]	59.5	66.2	–	–	–	–	–
GAASISRPTRAVPS [P35568 971-984]	957	202	–	–	–	–	–
GALPPRRPERPVGP [Q9NYR0 415-428]	3480	13800	–	–	–	–	–
NKVPTNPKKFKKAP [YDR181C 326-339]	–	–	20.2	210	178	70.3	126
GAARLGRPGRSSLP [P34925 3-16]	129	129	–	–	–	–	–
NLKPERPSKVSFEM [YEL062W 548-561]	–	–	805	1350	4070	52.6	103
FYRDLRRPFSAPDA [Q9HB63 378-391]	53.3	175	–	–	–	–	–
GDSKLFRPRRPRSS [O94820 218-231]	970	233	–	–	–	–	–
GDEPLPRPPRGAPH [Q92529 130-143]	155	253	–	–	–	–	–

Binder	normalised SPOT signal, Boehringer light units (BLU); mean over the file's lines of this peptide [1]	normalised SPOT signal, Boehringer light units (BLU); mean over the file's lines of this peptide [2]	normalised SPOT signal, Boehringer light units (BLU); mean over the file's lines of this peptide [3]	normalised SPOT signal, Boehringer light units (BLU); mean over the file's lines of this peptide [4]	normalised SPOT signal, Boehringer light units (BLU); mean over the file's lines of this peptide [5]	normalised SPOT signal, Boehringer light units (BLU); mean over the file's lines of this peptide [6]	normalised SPOT signal, Boehringer light units (BLU); mean over the file's lines of this peptide [7]
GAGSPARPPSPRLD [BAC04581 11-25]	339	15300	–	–	–	–	–
GDAPPPRPPPPVRP [CAD38936 189-203]	1250	14700	–	–	–	–	–
NLKPFHPPKEKSMN [YPL159C 186-199]	–	–	128	770	417	72.2	109
GAWPLKRPGRISSQ [Q9NXX3 159-172]	1500	213	–	–	–	–	–
AKLFPGRPPVKKLL [CAD39032 203-217]	93.5	13400	–	–	–	–	–
NLDPNPPVRGENLT [YDL046W 61-74]	–	–	26.6	315	118	18.3	81.4
FYYRPPRPPKGASK [P46527 86-100]	3820	4600	–	–	–	–	–
GSVRPARPERRLRS [Q9Y5B0 72-85]	12500	18700	–	–	–	–	–
GEDVLARPQRFAQL [Q96LA8 243-256]	194	7.6	–	–	–	–	–
GAFQPGRPLRVVAT [O60560 190-203]	1260	148	–	–	–	–	–
GAGQPRRPEAEPGQ [Q96AA2 6283-6296]	10.5	-0	–	–	–	–	–
NMVPLNPNRIIPDE [YDR499W 189-202]	–	–	340	504	1110	143	31.3
NIQPNIPLRSYRYL [YHL023C 782-795]	–	–	915	5920	19500	760	13200
GALHPPRPGRGLGQ [Q9UHX5 114-127]	441	78.6	–	–	–	–	–
GAKGPRRPGEEAEL [O15417 267-280]	0	39.5	–	–	–	–	–
